We go through 41 variants from the Human Domainome abundance scans (Beltran et al. 2025).

± gives the uncertainty stated by the source.

The labels stand for the following.
B1: Tumor protein 63, residues 545 to 610; numbered along this chain, Q9H3D4 (parent)
chain: TDCSIVSFLARLGCSSCLDYFTTQGLTTIYQIEHYSMDDLASLKIPEQFRHAIWKGILDHRQLHEF

In this data set the parent is B1. The data set can be described thus: abundance fitness (aPCA) (normalised: wild type 0, dead -1); higher = more abundant; growth selection in yeast, the domain comes from the species named. The note with it: Homo sapiens.
In the case of TDCSIVSFLARLGCSSCLDYFTTQGLTTIYQIEHYEMDDLASLKIPEQFRHAIWKGILDHRQLHEF [S36E], the abundance fitness was -0.014 ± 0.036.
The same measure for TDCSIVSFLARLGCSSCLDYFTTQGLTTIYQIEHYMMDDLASLKIPEQFRHAIWKGILDHRQLHEF [S36M]: -0.096 ± 0.05; for TDCSIVSFLARLGCSSCLDYFTTQGLTTIYQIEHYLMDDLASLKIPEQFRHAIWKGILDHRQLHEF [S36L]: -0.177 ± 0.027.
The same measure for TDCSIVSFLARLGCSSCLDYFTTQGLTTIYQIEHYGMDDLASLKIPEQFRHAIWKGILDHRQLHEF [S36G]: -0.028 ± 0.018; for TDCSIVSFLARLGCSSCLDYFTTQGLTTIYQIEHYFMDDLASLKIPEQFRHAIWKGILDHRQLHEF [S36F]: -0.379 ± 0.04; for TDCSIVSFLARLGCSSCLDYFTTQGLTTIYQIEHYAMDDLASLKIPEQFRHAIWKGILDHRQLHEF [S36A]: -0.062 ± 0.025.
Take TDCSIVSFLARLGCSSCLDYFTTQGLTTIYQIEHYIMDDLASLKIPEQFRHAIWKGILDHRQLHEF [S36I]: the abundance fitness is -0.188 ± 0.04.
The same measure for TDCSIVSFLARLGCSSCLDYFTTQGLTTIYQIEHYRMDDLASLKIPEQFRHAIWKGILDHRQLHEF [S36R]: -0.071 ± 0.024; for TDCSIVSFLARLGCSSCLDYFTTQGLTTIYQIEHYTMDDLASLKIPEQFRHAIWKGILDHRQLHEF [S36T]: -0.023 ± 0.044; for TDCSIVSFLARLGCSSCLDYFTTQGLTTIYQIEHYYMDDLASLKIPEQFRHAIWKGILDHRQLHEF [S36Y]: -0.311 ± 0.068.
To TDCSIVSFLARLGCSSCLDYFTTQGLTTIYQIEHYVMDDLASLKIPEQFRHAIWKGILDHRQLHEF [S36V] belongs -0.09 ± 0.025; to TDCSIVSFLARLGCSSCLDYFTTQGLTTIYQIEHYPMDDLASLKIPEQFRHAIWKGILDHRQLHEF [S36P], -0.608 ± 0.057.
The same measure for TDCSIVSFLARLGCSSCLDYFTTQGLTTIYQIEHYHMDDLASLKIPEQFRHAIWKGILDHRQLHEF [S36H]: -0.13 ± 0.092; for TDCSIVSFLARLGCSSCLDYFTTQGLTTIYQIEHTSMDDLASLKIPEQFRHAIWKGILDHRQLHEF [Y35T]: -0.318 ± 0.028; for TDCSIVSFLARLGCSSCLDYFTTQGLTTIYQIEHQSMDDLASLKIPEQFRHAIWKGILDHRQLHEF [Y35Q]: -0.394 ± 0.04.
For TDCSIVSFLARLGCSSCLDYFTTQGLTTIYQIEHWSMDDLASLKIPEQFRHAIWKGILDHRQLHEF [Y35W], the abundance fitness amounted to 0.001 ± 0.024.
Turning to TDCSIVSFLARLGCSSCLDYFTTQGLTTIYQIEHVSMDDLASLKIPEQFRHAIWKGILDHRQLHEF [Y35V], the abundance fitness is -0.118 ± 0.024.
The same measure for TDCSIVSFLARLGCSSCLDYFTTQGLTTIYQIEHRSMDDLASLKIPEQFRHAIWKGILDHRQLHEF [Y35R]: -0.48 ± 0.021; for TDCSIVSFLARLGCSSCLDYFTTQGLTTIYQIEHKSMDDLASLKIPEQFRHAIWKGILDHRQLHEF [Y35K]: -0.147 ± 0.037; for TDCSIVSFLARLGCSSCLDYFTTQGLTTIYQIEHPSMDDLASLKIPEQFRHAIWKGILDHRQLHEF [Y35P]: -0.955 ± 0.15.
The same measure for TDCSIVSFLARLGCSSCLDYFTTQGLTTIYQIEHNSMDDLASLKIPEQFRHAIWKGILDHRQLHEF [Y35N]: -0.392 ± 0.032.
To TDCSIVSFLARLGCSSCLDYFTTQGLTTIYQIEHMSMDDLASLKIPEQFRHAIWKGILDHRQLHEF [Y35M] belongs 0.03 ± 0.022.
Turning to TDCSIVSFLARLGCSSCLDYFTTQGLTTIYQIEHSSMDDLASLKIPEQFRHAIWKGILDHRQLHEF [Y35S], the abundance fitness is -0.251 ± 0.023.
The same measure for TDCSIVSFLARLGCSSCLDYFTTQGLTTIYQIEHYSMPDLASLKIPEQFRHAIWKGILDHRQLHEF [D38P]: -0.105 ± 0.051.
To TDCSIVSFLARLGCSSCLDYFTTQGLTTIYQIEHYSMGDLASLKIPEQFRHAIWKGILDHRQLHEF [D38G] belongs -0.021 ± 0.034; to TDCSIVSFLARLGCSSCLDYFTTQGLTTIYQIEHYSMMDLASLKIPEQFRHAIWKGILDHRQLHEF [D38M], 0.048 ± 0.26.
To TDCSIVSFLARLGCSSCLDYFTTQGLTTIYQIEHYSMCDLASLKIPEQFRHAIWKGILDHRQLHEF [D38C] belongs -0.082 ± 0.06; to TDCSIVSFLARLGCSSCLDYFTTQGLTTIYQIEHYSMQDLASLKIPEQFRHAIWKGILDHRQLHEF [D38Q], -0.026 ± 0.045; to TDCSIVSFLARLGCSSCLDYFTTQGLTTIYQIEHYSMNDLASLKIPEQFRHAIWKGILDHRQLHEF [D38N], -0.071 ± 0.078.
With TDCSIVSFLARLGCSSCLDYFTTQGLTTIYQIEHYSMVDLASLKIPEQFRHAIWKGILDHRQLHEF [D38V], the abundance fitness turned out to be 0.01 ± 0.032.
To TDCSIVSFLARLGCSSCLDYFTTQGLTTIYQIEHYSMRDLASLKIPEQFRHAIWKGILDHRQLHEF [D38R] belongs -0.03 ± 0.022; to TDCSIVSFLARLGCSSCLDYFTTQGLTTIYQIEHYSMFDLASLKIPEQFRHAIWKGILDHRQLHEF [D38F], -0.07 ± 0.15; to TDCSIVSFLARLGCSSCLDYFTTQGLTTIYQIEHYSMYDLASLKIPEQFRHAIWKGILDHRQLHEF [D38Y], -0.055 ± 0.086.
As to TDCSIVSFLARLGCSSCLDYFTTQGLTTIYQIEHYSMWDLASLKIPEQFRHAIWKGILDHRQLHEF [D38W], the abundance fitness was -0.085 ± 0.04.
The same measure for TDCSIVSFLARLGCSSCLDYFTTQGLTTIYQIEHYSMKDLASLKIPEQFRHAIWKGILDHRQLHEF [D38K]: -0.035 ± 0.13; for TDCSIVSFLARLGCSSCLDYFTTQGLTTIYQIEHYSMLDLASLKIPEQFRHAIWKGILDHRQLHEF [D38L]: -0.039 ± 0.034.
As to TDCSIVSFLARLGCSSCLDYFTTQGLTTIYQIEHYSMSDLASLKIPEQFRHAIWKGILDHRQLHEF [D38S], the abundance fitness was -0.029 ± 0.042.
To TDCSIVSFLARLGCSSCLDYFTTQGLTTIYQIEHYSMADLASLKIPEQFRHAIWKGILDHRQLHEF [D38A] belongs -0.01 ± 0.031; to TDCSIVSFLARLGCSSCLDYFTTQGLTTIYQIEHYSMEDLASLKIPEQFRHAIWKGILDHRQLHEF [D38E], 0.004 ± 0.051.
The same measure for TDCSIVSFLARLGCSSCLDYFTTQGLTTIYQIEHYSMTDLASLKIPEQFRHAIWKGILDHRQLHEF [D38T]: -0.033 ± 0.03; for TDCSIVSFLARLGCSSCLDYFTTQGLTTIYQIEHYSMIDLASLKIPEQFRHAIWKGILDHRQLHEF [D38I]: -0.077 ± 0.031.
